Where “and” joins values, the source holds several entries; their conditions need not be identical. Identical values can stand only once.
Key:
Assay in all cases: cell-based or functional assay
[1] = target: HA of ca A/Vietnam/1203/04 (H5N1) (influenza A virus)
[2] = target: HA of ca A/Panama/2007/99 (H3N2) (influenza A virus)
[3] = target: HA of ca A/Texas/36/91 (H1N1) (influenza A virus)
[4] = target: HA of ca A/teal/Hong Kong/W312/97 (H6N1) (influenza A virus)
[5] = target: HA of A/Kawasaki/9/86 (H1N1) (influenza A virus)
[6] = target: HA of A/New Jersey/8/76 (H1N1) (influenza A virus)
[7] = target: HA of A/Hong Kong/8/68 (H3N2) (influenza A virus)
[8] = target: HA of ca A/Beijing/262/95 (H1N1) (influenza A virus)
[9] = target: HA of virus H1-BS10
[10] = target: HA of A/Victoria/361/11 (H3N2) (influenza A virus)
[11] = target: HA of A/Wisconsin/67/05 (H3N2) (influenza A virus)
[12] = target: HA of ca A/Sydney/5/97 (H3N2) (influenza A virus)
[13] = target: HA of ca A/chicken/Hong Kong/G9/97 (H9N2) (influenza A virus)
[14] = target: HA of ca A/swine/Missouri/06 (H2N3) (influenza A virus)
[15] = target: HA of A/Fort Monmouth/1/47 (H1N1) (influenza A virus)
[16] = target: HA of ca A/New Caledonia/20/99 (H1N1) (influenza A virus)
[17] = target: HA of ca A/mallard/Alberta/89/85 (H6N2) (influenza A virus)
[18] = target: HA of ca A/Perth/16/09 (H3N2) (influenza A virus)
[19] = target: HA of ca A/Japan/57 (H2N2) (influenza A virus)
[20] = target: HA of ca A/Netherlands/219/03 (H7N7) (influenza A virus)
[21] = target: HA of A/Victoria/3/75 (H3N2) (influenza A virus)
[22] = target: HA of ca A/Brit. Columbia/CN-6/04 (H7N3-LP) (influenza A virus)
[23] = target: HA of ca A/Hong Kong/213/03 (H5N1) (influenza A virus)
[24] = target: HA of swine-origin A/Minnesota/11/2010 H3N2 virus (influenza A virus)

B1: Antibody 11 (antibody, V domains shown)
VH: QVQLQQSGPGLVKPSQTLSLTCAISGDSVSSYNAVWNWIRQSPSRGLEWLGRTYYRSGWYNDYAESVKSRITINPDTSKNQFSLQLNSVTPEDTAVYYCARSGHITVFGVNVDAFDMWGQGTMVTVSS
VL: DIQMTQSPSSLSASVGDRVTITCRTSQSLSSYTHWYQQKPGKAPKLLIYAASSRLSGVPSRFSGSGSGTDFTLTISSLQPEDFATYYCQQSRTFGQGTKVEIK
[1]
  Neutralization IC50, H5-VM04: 0.57 µg/mL
[2]
  Neutralization IC50, H3-Pa99: 2.18 µg/mL
[3]
  Neutralization IC50, H1-TX91: 0.11 µg/mL
[4]
  Neutralization IC50, H6-HK97: 0.4 µg/mL
[5]
  Neutralization IC50, H1-Kaw86: 0.53 µg/mL
[6]
  Neutralization IC50, H1-NJ76: 0.13 µg/mL
[7]
  Neutralization IC50, H3-HK68: 0.46 µg/mL
[8]
  Neutralization IC50, H1-BJ95: 1.01 µg/mL
[9]
  Neutralization IC50, H1-BS10: 1.15 µg/mL
[10]
  Neutralization IC50, H3-VC11: 0.85 µg/mL
[11]
  Neutralization IC50, H3-WI05: 1.07 µg/mL
[12]
  Neutralization IC50, H3-Syd97: 1.53 µg/mL
[13]
  Neutralization IC50, H9-HK97: 0.36 µg/mL
[14]
  Neutralization IC50, H2-MO06: 0.6 µg/mL
[15]
  Neutralization IC50, H1-FM47: 0.43 µg/mL
[16]
  Neutralization IC50, H1-Ncal99: 0.66 µg/mL
[17]
  Neutralization IC50, H6-AB85: 0.24 µg/mL
[18]
  Neutralization IC50, H3-Perth09: 0.17 µg/mL
[19]
  Neutralization IC50, H2-JP57: 0.31 µg/mL
[20]
  Neutralization IC50, H7-NLD03: 0.94 µg/mL
[21]
  Neutralization IC50, H3-Vic75: 0.46 µg/mL
[22]
  Neutralization IC50, H7-BC04: 0.71 µg/mL
[23]
  Neutralization IC50, H5-HK03: 0.21 µg/mL
[24]
  Neutralizing activity IC50, swine-origin A/Minnesota/11/2010: 1.6 µg/mL and 1.5 µg/mL

B2: Antibody 15 (antibody, V domains shown)
VH: QVQLQQSGPGLVKPSQTLSLTCAISGDSVSSNNAVWNWIRQSPSRGLEWLGRTYYRSKWYNDYAESVKSRITINPDTSKNQFSLQLNSVTPEDTAVYYCARSGHITVFGVNVDAFDMWGQGTTVTVSS
VL: DIQMTQSPSSLSASVGDRVTITCRTSQSLSSYTHWYQQKPGKAPKLLIYAASSRGSGVPSRFSGSGSGTDFTLTISSLQPEDFATYYCQQSRTFGQGTKVEIK
[1]
  Neutralization IC50, H5-VM04: 0.28 µg/mL
[2]
  Neutralization IC50, H3-Pa99: 3.39 µg/mL
[3]
  Neutralization IC50, H1-TX91: 0.13 µg/mL
[4]
  Neutralization IC50, H6-HK97: 0.33 µg/mL
[5]
  Neutralization IC50, H1-Kaw86: 0.48 µg/mL
[6]
  Neutralization IC50, H1-NJ76: 0.25 µg/mL
[7]
  Neutralization IC50, H3-HK68: 0.5 µg/mL
[8]
  Neutralization IC50, H1-BJ95: 1.81 µg/mL
[9]
  Neutralization IC50, H1-BS10: 1.89 µg/mL
[10]
  Neutralization IC50, H3-VC11: 1.29 µg/mL
[11]
  Neutralization IC50, H3-WI05: 1.3 µg/mL
[12]
  Neutralization IC50, H3-Syd97: 1.79 µg/mL
[13]
  Neutralization IC50, H9-HK97: 0.35 µg/mL
[14]
  Neutralization IC50, H2-MO06: 0.83 µg/mL
[15]
  Neutralization IC50, H1-FM47: 0.35 µg/mL
[16]
  Neutralization IC50, H1-Ncal99: 0.79 µg/mL
[17]
  Neutralization IC50, H6-AB85: 0.19 µg/mL
[18]
  Neutralization IC50, H3-Perth09: 0.5 µg/mL
[19]
  Neutralization IC50, H2-JP57: 0.33 µg/mL
[20]
  Neutralization IC50, H7-NLD03: 1.3 µg/mL
[21]
  Neutralization IC50, H3-Vic75: 0.35 µg/mL
[22]
  Neutralization IC50, H7-BC04: 1.25 µg/mL
[23]
  Neutralization IC50, H5-HK03: 0.05 µg/mL
[24]
  Neutralizing activity IC50, swine-origin A/Minnesota/11/2010: 0.9 µg/mL and 2.7 µg/mL

B3: Antibody 13 (antibody, V domains shown)
VH: QVQLQQSGPGLVKPSQTLSLTCAISGDSVSSYNAVWNWIRQSPSRGLEWLGRTYYRSGWYNDYAESVKSRITINPDTSKNQFSLQLNSVTPEDTAVYYCARSGHITVFGVNVDAFDMWGQGTMVTVSS
VL: DIQMTQSPSSLSASVGDRVTITCRTSQSLSSYDHWYQQKPGKAPKLLIYAASSRLSGVPSRFSGSGSGTDFTLTISSLQPEDFATYYCQQSRTFGQGTKVEIK
[1]
  Neutralization IC50, H5-VM04: 0.56 µg/mL
[2]
  Neutralization IC50, H3-Pa99: 2.62 µg/mL
[3]
  Neutralization IC50, H1-TX91: 0.09 µg/mL
[4]
  Neutralization IC50, H6-HK97: 0.55 µg/mL
[5]
  Neutralization IC50, H1-Kaw86: 0.41 µg/mL
[6]
  Neutralization IC50, H1-NJ76: 0.12 µg/mL
[7]
  Neutralization IC50, H3-HK68: 0.44 µg/mL
[8]
  Neutralization IC50, H1-BJ95: 1.86 µg/mL
[9]
  Neutralization IC50, H1-BS10: 1.23 µg/mL
[10]
  Neutralization IC50, H3-VC11: 1.03 µg/mL
[11]
  Neutralization IC50, H3-WI05: 1.19 µg/mL
[12]
  Neutralization IC50, H3-Syd97: 2.18 µg/mL
[13]
  Neutralization IC50, H9-HK97: 0.29 µg/mL
[14]
  Neutralization IC50, H2-MO06: 0.57 µg/mL
[15]
  Neutralization IC50, H1-FM47: 0.5 µg/mL
[16]
  Neutralization IC50, H1-Ncal99: 0.77 µg/mL
[17]
  Neutralization IC50, H6-AB85: 0.29 µg/mL
[18]
  Neutralization IC50, H3-Perth09: 0.28 µg/mL
[19]
  Neutralization IC50, H2-JP57: 0.47 µg/mL
[20]
  Neutralization IC50, H7-NLD03: 2.45 µg/mL
[21]
  Neutralization IC50, H3-Vic75: 0.43 µg/mL
[22]
  Neutralization IC50, H7-BC04: 0.96 µg/mL
[23]
  Neutralization IC50, H5-HK03: 0.17 µg/mL
[24]
  Neutralizing activity IC50, swine-origin A/Minnesota/11/2010: 1.6 µg/mL and 1.4 µg/mL

Reference: patent US20160257732A1 (published 2016)
